Tests used:
[1] = target: human CD98hc ectodomain (recombinant) (human) (UniProt P08195); experiment: ELISA, VNAR-hFc in Expi293 medium on coated ectodomain
[2] = target: mouse CD98hc ectodomain (recombinant) (mouse) (UniProt P10852); experiment: as above
[3] = target: human CD98hc ectodomain (recombinant) (human) (UniProt P08195); experiment: ELISA, purified VNAR-Fc titrated on plate-coated CD98hc (1 ug/mL)
[4] = target: mouse CD98hc ectodomain (recombinant) (mouse) (UniProt P10852); experiment: as above
human serum albumin = target: T1, human serum albumin (human, UniProt P02768 25-609); experiment: ELISA, VNAR-hFc in Expi293 medium on coated HSA (negative control)
T1 construct: Negative control antigen in ELISA; also called HSA
Text: The clones were reformatted as bivalent VNAR-Fc by cloning the VNARs into the commercial pFUSE vector (pFUSE-hIgG1e3-Fc2). The Fc region of the protein contained CH2 and CH3 domains with the hinge that served as a flexible spacer between the two parts of the Fc-fusion protein. N-termini of the construct contained the IL2 signal sequence to allow secretion. A HEK Expi293 expression system was used to transiently express the proteins. The VNAR clones were expressed as Fc formats in mammalian cells in small (1 ml) scale in 96-well plates. Media was collected and used directly for ELISA in order to confirm binding to the ectodomain of mouse and human CD98hc. Human serum albumin was used as the negative control.

Chain of human CD98hc ectodomain (recombinant) (human) (P08195 206-630): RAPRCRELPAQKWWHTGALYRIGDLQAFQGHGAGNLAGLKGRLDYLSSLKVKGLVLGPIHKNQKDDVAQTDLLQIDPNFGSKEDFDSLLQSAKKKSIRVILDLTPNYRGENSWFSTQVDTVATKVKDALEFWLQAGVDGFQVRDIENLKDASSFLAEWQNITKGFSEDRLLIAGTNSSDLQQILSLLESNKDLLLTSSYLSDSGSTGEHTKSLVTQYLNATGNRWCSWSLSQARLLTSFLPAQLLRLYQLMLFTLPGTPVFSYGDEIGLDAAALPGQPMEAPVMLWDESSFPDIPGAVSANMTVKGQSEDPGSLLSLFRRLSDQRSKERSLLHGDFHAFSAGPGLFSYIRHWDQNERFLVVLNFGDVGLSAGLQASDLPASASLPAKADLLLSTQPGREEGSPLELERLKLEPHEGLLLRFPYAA
T1 sequence (P02768 25-609 limits assumed): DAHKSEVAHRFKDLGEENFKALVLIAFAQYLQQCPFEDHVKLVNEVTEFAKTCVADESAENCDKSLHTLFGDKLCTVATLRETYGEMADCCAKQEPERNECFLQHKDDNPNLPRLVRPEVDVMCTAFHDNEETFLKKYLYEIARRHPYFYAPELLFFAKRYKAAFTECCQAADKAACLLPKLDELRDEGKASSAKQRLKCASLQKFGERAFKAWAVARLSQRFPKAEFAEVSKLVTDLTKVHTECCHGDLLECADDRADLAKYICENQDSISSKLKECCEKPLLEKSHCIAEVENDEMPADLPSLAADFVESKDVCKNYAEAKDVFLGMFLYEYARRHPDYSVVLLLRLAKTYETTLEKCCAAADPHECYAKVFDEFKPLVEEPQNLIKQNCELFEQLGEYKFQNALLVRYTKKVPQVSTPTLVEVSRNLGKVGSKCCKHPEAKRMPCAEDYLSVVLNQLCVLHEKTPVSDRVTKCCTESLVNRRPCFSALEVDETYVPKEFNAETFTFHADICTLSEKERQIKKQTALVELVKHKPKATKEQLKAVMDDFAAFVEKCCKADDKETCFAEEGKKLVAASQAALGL
Chain of mouse CD98hc ectodomain (recombinant) (mouse) (P10852 100-526): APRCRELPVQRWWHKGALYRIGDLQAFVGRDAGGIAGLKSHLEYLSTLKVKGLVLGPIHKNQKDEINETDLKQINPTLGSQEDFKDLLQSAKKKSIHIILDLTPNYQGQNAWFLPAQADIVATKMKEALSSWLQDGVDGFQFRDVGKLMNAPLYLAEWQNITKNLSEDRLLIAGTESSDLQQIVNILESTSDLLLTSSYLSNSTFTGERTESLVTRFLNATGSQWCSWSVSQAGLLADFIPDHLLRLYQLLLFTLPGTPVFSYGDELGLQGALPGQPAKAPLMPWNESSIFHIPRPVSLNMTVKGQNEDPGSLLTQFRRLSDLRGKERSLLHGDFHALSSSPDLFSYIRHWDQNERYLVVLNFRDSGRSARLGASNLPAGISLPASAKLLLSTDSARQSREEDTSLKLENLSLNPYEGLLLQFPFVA

| Binder | Binding [relative units] (relative units) [1] | Binding [relative units] (relative units) [2] | EC50 [3] [nM] | EC50 [4] [nM] | Binding [relative units] (human serum albumin) |
| --- | --- | --- | --- | --- | --- |
| F12 VNAR-hFc fusion (Fc fusion, Bivalent VNAR-Fc, VNAR N-terminal to human IgG1 Fc; Expi293; also called F12-hFc; clone F12; not shown: human IgG1 Fc (hinge, CH2, CH3) of vector pFUSE-hIgG1e3-Fc2) ARVDQTPQTITKEEGESLTINCVLRVHGRALASTSWYRKKSGSTREETISKGGRYVETVNSGSKSFSLRINDLTVEDSGTYRCNVYGLSFGDIEGVKKIDVYGDGTAVTVNA | 3.99 | 0.563 | 12 | 72 | 0.112 |
| F1 VNAR-hFc fusion (Fc fusion, Bivalent VNAR-Fc, VNAR N-terminal to human IgG1 Fc; Expi293; also called Fl; not shown: human IgG1 Fc (hinge, CH2, CH3) of vector pFUSE-hIgG1e3-Fc2) ARVDQTPQTITKEEGESLTINCVLRVHGRALASTSWYRKKSGSTREETISKGGRYVETVNSGSKSFSLRINDLTVEDSGTYRCNVYGLSSGDIEGVKKIDVYGDGTAVTVNA | 3.76 | 0.115 | 3 | 3860 | 0.073 |
| H12 VNAR-hFc fusion (Fc fusion, Bivalent VNAR-Fc, VNAR N-terminal to human IgG1 Fc; Expi293; not shown: human IgG1 Fc (hinge, CH2, CH3) of vector pFUSE-hIgG1e3-Fc2) ARVDQTPQTITKEEGESLTINCVLRVHGCALASTSWYRKKSGSTREETISKGGRYVETVNSGSKSFSLRINDLTVEDSGTYRCNVYGLSFVDIEGVKKIDVYGDGTAVTVNA | 0.046 | 0.045 |  |  | 0.055 |
| D1 VNAR-hFc fusion (Fc fusion, Bivalent VNAR-Fc, VNAR N-terminal to human IgG1 Fc; Expi293; also called D1-hFc; not shown: human IgG1 Fc (hinge, CH2, CH3) of vector pFUSE-hIgG1e3-Fc2) ARVDQTPQTITKEEGESLTINCVLRHNYSALASTSWYRKKSGSTREETISKGGRYVETVNSGSKSFSLRINDLTVEDSGTYRCNVYGISFIEEKIRYDFDVYGDGTAVTVNA | 3.5 | 0.417 | 28 | 190 | 0.074 |
| H6 VNAR-hFc fusion (Fc fusion, Bivalent VNAR-Fc, VNAR N-terminal to human IgG1 Fc; Expi293; not shown: human IgG1 Fc (hinge, CH2, CH3) of vector pFUSE-hIgG1e3-Fc2) ARVDQTPQTITKEEGESLTINCVLRTHSNALASTSWYRKKSGSTREETISKGGRYVETVNSGSKSFSLRINDLTVEDSGTYRCNVYAFLEIQPNIYHEFDVYGDGTAVTVNA | 3.31 | 0.186 | 6 | 86 | 0.06 |
| H7 VNAR-hFc fusion (Fc fusion, Bivalent VNAR-Fc, VNAR N-terminal to human IgG1 Fc; Expi293; not shown: human IgG1 Fc (hinge, CH2, CH3) of vector pFUSE-hIgG1e3-Fc2) ARVDQTPQTITKEEGESLTINCVLRYNNPALASTSWYRKKSGSTREETISKGGRYVETVNSGSKSFSLRINDLTVEDSGTYRCNVYFFPSFLVDKLQSHDVYGDGTAVTVNA | 3.93 | 0.108 | 6 | 504 | 0.072 |
| G3 VNAR-hFc fusion (Fc fusion, Bivalent VNAR-Fc, VNAR N-terminal to human IgG1 Fc; Expi293; not shown: human IgG1 Fc (hinge, CH2, CH3) of vector pFUSE-hIgG1e3-Fc2) ARVDQTPQTITKETGESLTINCVLRDNNCALSTTYWYRKKSGSTNEENISKGGRYVETVNSGSKSFSLRINDLTVEDSGTYRCKVHFFPSFCNSTSIRSVDVYGGGTVVTVNA | 1.48 | 0.041 | 107 |  | 0.053 |
| E12 VNAR-hFc fusion (Fc fusion, Bivalent VNAR-Fc, VNAR N-terminal to human IgG1 Fc; Expi293; not shown: human IgG1 Fc (hinge, CH2, CH3) of vector pFUSE-hIgG1e3-Fc2) ARVDQTPQTITKEEGESLTINCVLRTQDPALASTSWYRKKSGSTREETISKGGRYVETVNSGSKSFSLRINDLTVEDSGTYRCNVYFLLAPTKTKLQGIDVYGDGTAVTVNA | 2.19 | 0.078 | 56 | 819 | 0.056 |
| G12 VNAR-hFc fusion (Fc fusion, Bivalent VNAR-Fc, VNAR N-terminal to human IgG1 Fc; Expi293; not shown: human IgG1 Fc (hinge, CH2, CH3) of vector pFUSE-hIgG1e3-Fc2) ARVDQTPQTITKETGESLTINCVLRDSNCALSSTYWYRKKSGSTNEALISKGGRYVETVNSGSKSFSLRINDLTVEDSGTYRCNVVQDLRDDCFFRDVYGGGTAVTVNA | 0.044 | 0.044 |  |  | 0.054 |
| C6 VNAR-hFc fusion (Fc fusion, Bivalent VNAR-Fc, VNAR N-terminal to human IgG1 Fc; Expi293; not shown: human IgG1 Fc (hinge, CH2, CH3) of vector pFUSE-hIgG1e3-Fc2) ARVDQTPQTITKETGESLTINCVLRDSNCALSSTYWYRKKSGSTNEALISKGGRYVETVNSGSKSFSLRINDLTVEDSGTYRCNVVYDLRDDCFFRDVYGGGTAVTVNA | 0.041 | 0.042 |  |  | 0.052 |
| B12 VNAR-hFc fusion (Fc fusion, Bivalent VNAR-Fc, VNAR N-terminal to human IgG1 Fc; Expi293; not shown: human IgG1 Fc (hinge, CH2, CH3) of vector pFUSE-hIgG1e3-Fc2) ARVDQTPRSVTKETGESLTINCVLRDASYALGSTCWYRKKSGSTNEESISKGGRYVETVNSGSKSFSLRINDLTVEDGGTYRCGVARGWRTLNYLCDVRTGEWSCVWRAAACGDGTAVTVNA | 0.076 | 0.084 |  |  | 0.081 |
| E12A VNAR-hFc fusion (Fc fusion, Bivalent VNAR-Fc, VNAR N-terminal to human IgG1 Fc; Expi293; not shown: human IgG1 Fc (hinge, CH2, CH3) of vector pFUSE-hIgG1e3-Fc2) ARVDQTPQTIAREEGESVTINCVVRDSNRALASTSWCSEKYVSTREESISKGGRYVETVNSGSKSFSLRINDLTVEDSGTYRCNVYFFPSFEVDVLQTNDVYGDGTAVTVNA | 0.049 | 0.065 |  |  | 0.063 |
| F11 VNAR-hFc fusion (Fc fusion, Bivalent VNAR-Fc, VNAR N-terminal to human IgG1 Fc; Expi293; not shown: human IgG1 Fc (hinge, CH2, CH3) of vector pFUSE-hIgG1e3-Fc2) ARVDQTPQTITKEEGESLTINCVLRGEFYALASTSWYRKKSGSTREETISKGGRYVETVNSGSKSFSLRINDLTVEDSGTYRCNVYGYRIFSPEVKGPNDVYGDGTAVTVNA | 3.03 | 0.096 |  |  | 0.072 |
| A8 VNAR-hFc fusion (Fc fusion, Bivalent VNAR-Fc, VNAR N-terminal to human IgG1 Fc; Expi293; not shown: human IgG1 Fc (hinge, CH2, CH3) of vector pFUSE-hIgG1e3-Fc2) ARVDQTPQTITKEEGESLTINCVLRRNFQLASTSWYRKKSGSTREETISKGGRYVETVNSGSKSFSLRINDLTVEDSGTYRCNVYGFVEFAKNIVEFIDVYGDGTAVTVNA | 2.97 | 0.135 |  |  | 0.065 |
| G6 VNAR-hFc fusion (Fc fusion, Bivalent VNAR-Fc, VNAR N-terminal to human IgG1 Fc; Expi293; not shown: human IgG1 Fc (hinge, CH2, CH3) of vector pFUSE-hIgG1e3-Fc2) ARVDQTPQTITKEEGESLTINCVLRVETRALASTSWYRKKSGSTREETISKGGRYVETVNSGSKSFSLRINDLTVEDSGTYRCNVYIRHYSEFTQAPFRDVYGDGTAVTVNA | 0.042 | 0.041 |  |  | 0.052 |
| H7A VNAR-hFc fusion (Fc fusion, Bivalent VNAR-Fc, VNAR N-terminal to human IgG1 Fc; Expi293; not shown: human IgG1 Fc (hinge, CH2, CH3) of vector pFUSE-hIgG1e3-Fc2) PGVDQTEQTIKKEEGESVTIKCVMRVKYPALASTSRYRKKSGSREETISKGGRYVETVNYSSKSISVRINDMTVEDSGRYRCNVYEEYAVDCDALVYQDVYGDGTAVTVNA | 0.043 | 0.043 |  |  | 0.054 |
| H8 VNAR-hFc fusion (Fc fusion, Bivalent VNAR-Fc, VNAR N-terminal to human IgG1 Fc; Expi293; not shown: human IgG1 Fc (hinge, CH2, CH3) of vector pFUSE-hIgG1e3-Fc2) ARVDQTPQTITKETGESLTINCVLRDSNCALPSTYWYRKKSGSTNEESISKGGRYVETVNSGSKSFSLRINDLVVEDSGTYRCKVGNYCIRLCYDMKFAVDVYGGGTAVTVNA | 0.048 | 0.049 |  |  | 0.059 |
| G10 VNAR-hFc fusion (Fc fusion, Bivalent VNAR-Fc, VNAR N-terminal to human IgG1 Fc; Expi293; not shown: human IgG1 Fc (hinge, CH2, CH3) of vector pFUSE-hIgG1e3-Fc2) ARVDQTPQTITKETGESLTINCVLRDSNCALSSTYWYRKKSGSTNEENISKGGRYVETVNSGSKSFSLKINDLTVEDSGTYRCKVVFKLFSGRACAGEKDVYGGGTVVTVNA | 0.043 | 0.041 |  |  | 0.051 |
